Measurements reported in publication PMC4137731.

Legend:
[1] = molecular target: KpSSBnPaSSBc (K. pneumoniae subsp. pneumoniae MGH 78578 | P. aeruginosa PAO1) (UniProt A6TGW7); assay: SEC; purified protein (2 mg/mL) on Superdex 200 HR 10/30 in Buffer D (20 mM potassium phosphate, 1 mM EDTA, 100 mM NaCl, pH 7.0), 0.5 mL/min; calibrated with proteins of known molecular weight; oligomeric state from the native mass against the monomer mass
[2] = molecular target: KpSSBnStSSBc (K. pneumoniae subsp. pneumoniae MGH 78578 | S. enterica serovar Typhimurium LT2) (UniProt A6TGW7); assay: as above

Substance	stoichiometry N [1]	stoichiometry N [2]
KpSSBnPaSSBc (from UniProt A6TGW7 1-91; P40947 91-165)	4	
KpSSBnStSSBc (from UniProt A6TGW7 1-91; P0A2F6 92-176)		4
